# Assay results: patent US20080058263A1 (published 2008)
# Changes are numbered by the printed parent chain.
# T1: VEGFR-3-Fc (UniProt P35916 25-328)
# T1 construct: domain: first three Ig domains; conditioned supernatant of 293T cells; also called VEGFR-3-Fc fusion protein; not shown: Fc fragment of the pIg vector
# T1 sequence (looked up): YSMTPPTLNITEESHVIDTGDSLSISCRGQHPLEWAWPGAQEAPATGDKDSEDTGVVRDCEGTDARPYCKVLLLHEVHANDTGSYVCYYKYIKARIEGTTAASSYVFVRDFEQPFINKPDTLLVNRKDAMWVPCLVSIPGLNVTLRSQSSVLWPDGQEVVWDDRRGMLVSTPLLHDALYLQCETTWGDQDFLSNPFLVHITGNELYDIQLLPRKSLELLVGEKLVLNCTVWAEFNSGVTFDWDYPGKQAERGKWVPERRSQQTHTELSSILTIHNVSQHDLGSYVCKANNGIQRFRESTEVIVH
# B1: 73-7 (ligand)
# chain: GQNHHEVVKSIDNEWRKTQCMPREVCIDVGKEYPDEIEYIFKPPCVSVYRCGGCCNSEGLQCVPTEESNITMQIMRIKPHQGQHIGEMSFANHTSCRCMSKLD
# B2: 61-13 (ligand)
# chain: GQNHHEVVKFMDVYQRSYCHPREVCIDVGKEYPDEIEYIFKPSCVPLMRCGGCCNDEGLECVPTEESNITMQIMRITVPLSQGPKPVTISFANHTSCRCMSKLD
# B3: 63-9 (ligand)
# chain: GQNHHEVVKFMDVYQRSYCHPREVCIDVGKEYPDEIEYIFKPPCVSVYRCGGCCNDEGLECVPTEESNITMQIMRITVPLSQGPKPVTISFLQHNKCECRPKKD
# B4: 43-13 (ligand)
# chain: AHYNTEILKFMDVYQRSYCHPREVCIDVGKEYPDEIEYIFKPPCVSVYRCGGCCNDEGLECVPTEESNITMQIMRITVPLSQGPKPVTISFANHTSCRCMSKLD
# B5: 13-13 (ligand)
# chain: GQNHHEVVKFMDVYQRSYCHPIETLVDIFQEYPDEIEYIFKPPCVSVYRCGGCCNDEGLECVPTEESNITMQIMRITVPLSQGPKPVTISFANHTSCRCMSKLD
# B6: 62-13 (ligand)
# chain: GQNHHEVVKFMDVYQRSYCHPREVCIDVGKEFGVATNTFFKPPCVSVYRCGGCCNDEGLECVPTEESNITMQIMRITVPLSQGPKPVTISFANHTSCRCMSKLD
# B7: 63-1 (ligand)
# chain: GQNHHEVVKFMDVYQRSYCHPREVCIDVGKEYPDEIEYIFKPPCVSVYRCGGCCNDEGLECVPTEESNITMQIMRIKPHQGQHIGEMSFLQHNKCECRPKKD
# B8: 62-16 (ligand)
# chain: GQNHHEVVKFMDVYQRSYCHPREVCIDVGKEFGVATNTFFKPPCVSVYRCGGCCNSEGLQCMNTSTSYLSKTLFEITVPLSQGPKPVTISFANHTSCRCMSKLD
# B9: 64-10 (ligand)
# chain: GQNHHEVVKFMDVYQRSYCHPREVCIDVGKEFGVATNTFFKPSCVPLMRCGGCCNDEGLECMNTSTSYLSKTLFEITVPLSQGPKPVTISFLQHNKCECRPKKD
# B10: 63-16 (ligand)
# chain: B8 chain with F32Y, G33P, V34D, A35E, T36I, N37E, T38Y, F39I
# B11: 63-14 (ligand)
# chain: B8 chain with F32Y, G33P, V34D, A35E, T36I, N37E, T38Y, F39I, S56D, Q60E
# B12: 64-14 (ligand)
# chain: B8 chain with P43S, S46P, V47L, Y48M, S56D, Q60E
# B13: 64-16 (ligand)
# chain: B8 chain with P43S, S46P, V47L, Y48M
# B14: 71-11 (ligand)
# chain: GQNHHEVVKSIDNEWRKTQCMPREVCIDVGKEYPDEIEYIFKPSCVPLMRCGGCCNSEGLQCVPTEESNITMQIMRITVPLSQGPKPVTISFLQHNKCECRPKKD
# B15: 71-13 (ligand)
# chain: B14 chain with S57D, Q61E, L93A, Q94N, N96T, K97S, E99R, R101M, P102S, K104L
# B16: 71-15 (ligand)
# chain: B14 chain with L93A, Q94N, N96T, K97S, E99R, R101M, P102S, K104L
# B17: 73-15 (ligand)
# chain: GQNHHEVVKSIDNEWRKTQCMPREVCIDVGKEYPDEIEYIFKPPCVSVYRCGGCCNSEGLQCVPTEESNITMQIMRITVPLSQGPKPVTISFANHTSCRCMSKLD
# B18: 31-11 (ligand)
# chain: B14 chain with R23I, V25T, C26L, I27V, V29I, G30F, K31Q
# B19: 21-11 (ligand)
# chain: B14 chain with G1A, Q2H, N3Y, H4N, H5T, V7I, V8L
# B20: 31-3 (ligand)
# chain: B14 chain with R23I, V25T, C26L, I27V, V29I, G30F, K31Q, S57D, Q61E
# B21: 23-11 (ligand)
# chain: AHYNTEILKSIDNEWRKTQCMPREVCIDVGKEYPDEIEYIFKPPCVSVYRCGGCCNSEGLQCVPTEESNITMQIMRITVPLSQGPKPVTISFLQHNKCECRPKKD
# B22: 33-11 (ligand)
# chain: GQNHHEVVKSIDNEWRKTQCMPIETLVDIFQEYPDEIEYIFKPPCVSVYRCGGCCNSEGLQCVPTEESNITMQIMRITVPLSQGPKPVTISFLQHNKCECRPKKD
# B23: 62-11 (ligand)
# chain: B6 chain with D56S, E60Q, A92L, N93Q, T95N, S96K, R98E, M100R, S101P, L103K
# Target: T1, VEGFR-3-Fc
# Experiment: receptor-Fc IP
# How it was run: (§1)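 Binding of ligand from sample supernatant measured by pentahistidine-antibody immunoprecipitation. IP mix: PBS with 1.5% BSA, 0.06% Tween 20, 3 μg/ml heparin and 400 ng/ml fusion protein, added 1:2 to sample supernatant.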
row,binding result,Binder
1,no binding,B1
2,no binding,B2
3,no binding,B3
4,no binding,B4
5,no binding,B5
6,no binding,B6
7,no binding,B7
8,no binding,B8
9,no binding,B9
10,no binding,B10
11,no binding,B11
12,no binding,B12
13,no binding,B13
14,no binding,B14
15,no binding,B15
16,no binding,B16
17,no binding,B17
18,no binding,B18
19,no binding,B19
20,no binding,B20
21,no binding,B21
22,no binding,B22
23,binds,B23

# Target: T2, VEGFR-2-Fc (UniProt P35968 20-322)
# T2 construct: domain: first 3 Ig domains; conditioned supernatant of 293T cells; also called VEGFR-2-Fc fusion protein; not shown: Fc fragment of the pIg vector
# Experiment: receptor-Fc IP
# How it was run: as §1
# T2 sequence (P35968 20-322): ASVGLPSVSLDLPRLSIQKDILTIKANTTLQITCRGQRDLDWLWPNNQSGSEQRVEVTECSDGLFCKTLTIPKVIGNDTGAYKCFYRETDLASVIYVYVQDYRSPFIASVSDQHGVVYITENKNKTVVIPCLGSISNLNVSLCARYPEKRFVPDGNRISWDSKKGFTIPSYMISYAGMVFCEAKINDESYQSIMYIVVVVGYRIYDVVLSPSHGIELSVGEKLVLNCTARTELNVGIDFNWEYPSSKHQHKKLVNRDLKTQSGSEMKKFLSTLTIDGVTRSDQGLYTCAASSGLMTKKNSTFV
row,binding result,Binder
1,binds,B1
2,no binding,B2
3,no binding,B3
4,no binding,B4
5,no binding,B5
6,binds,B6
7,binds,B7
8,no binding,B8
9,no binding,B9
10,no binding,B10
11,no binding,B11
12,no binding,B12
13,no binding,B13
14,no binding,B14
15,no binding,B15
16,no binding,B16
17,binds,B17
18,no binding,B18
19,no binding,B19
20,no binding,B20
21,no binding,B21
22,no binding,B22
23,binds,B23

# Target: T3, VEGFR-1-Fc (UniProt P17948 27-338)
# T3 construct: domain: first three Ig domains; expressed in Drosophila S2 cells, purified on Protein A sepharose; also called VEGFR-1-Fc fusion protein; not shown: Fc fragment from the Signal-pIgPlus vector
# Experiment: receptor-Fc IP
# How it was run: as §1
# T3 sequence (P17948 27-338): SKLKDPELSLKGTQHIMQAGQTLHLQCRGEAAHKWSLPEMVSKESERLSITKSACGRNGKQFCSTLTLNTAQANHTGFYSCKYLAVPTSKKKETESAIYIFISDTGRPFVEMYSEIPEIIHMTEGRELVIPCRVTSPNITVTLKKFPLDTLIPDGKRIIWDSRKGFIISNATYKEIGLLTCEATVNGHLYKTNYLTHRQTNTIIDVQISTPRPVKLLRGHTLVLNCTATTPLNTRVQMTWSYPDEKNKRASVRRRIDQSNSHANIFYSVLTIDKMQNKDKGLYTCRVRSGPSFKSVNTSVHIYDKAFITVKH
row,binding result,Binder
1,no binding,B1
2,no binding,B2
3,no binding,B3
4,no binding,B4
5,binds,B5
6,no binding,B6
7,binds,B7
8,no binding,B8
9,no binding,B9
10,no binding,B10
11,no binding,B11
12,no binding,B12
13,no binding,B13
14,no binding,B14
15,no binding,B15
16,no binding,B16
17,no binding,B17
18,no binding,B18
19,no binding,B19
20,no binding,B20
21,no binding,B21
22,no binding,B22
23,no binding,B23
